Test results taken from patent US20160289339A1 (IMMUNWORK, published 2016).

How the values were obtained:
[1] = biological target: T1, synthetic polypeptide maF1-2 (human); test: ELISA on coated synthetic polypeptides
T1 peptide: GSCSVADWQMPP
Procedure: (§1) Anti-migis-α mAbs 8G7 (Igγ2b, κ) and 29C11 (Igγ1, κ) were purified from hybridoma culturing medium by using Protein A Sepharose CL-4B medium (GE Healthcare). Purified mAbs were stored in PBS at the concentration of 1 mg/ml. A mouse anti-human IgA1.Fc mAb 3C10 (Igγ1, Abcam) and mouse total IgG (Sigma-Aldrich) were used as positive and negative controls, respectively. Various migis-α-containing recombinant proteins and several irrelevant proteins were tested in ELISA. Proteins were coated at 1 μg/ml in 0.05M carbonate/bicarbonate buffers in ELISA plates at 4° C. for overnight. Plates were washed with PBST (PBS with 0.05% Tween® 20) and blocked by PBS/BSA (PBS with 1% BSA) at room temperature for 1 h. After washing with PBST, mAbs at 1 μg/ml in PBS/BSA were added into plates and incubated at room temperature for 1 hr. Plates were washed with PBST and then HRP-conjugated goat anti-mouse IgG.Fc antibodies 1:10,000 diluted in PBS/BSA were adding into plates. After incubation at room temperature for 1 hr and washing with PBST, Tetramethylbenzidine substrates (Clinical Scientific Products) were added into plates for colorimetric measurement.
(§2) Synthetic migis-αL polypeptides were further used to study binding epitopes of anti-migis-α mAbs by ELISA. Polypeptides maFL (SEQ ID NO:9), maFa (SEQ ID NO:10), maFb (SEQ ID NO:11), and maFc (SEQ ID NO:12) are fragments that represent the full length, the N-terminal part, the middle part, and the C-terminal part of migis-αL sequences (FIG. 3A). Polypeptides maF1-2 (SEQ ID NO:13), maF1-3 (SEQ ID NO:14), maF2 (SEQ ID NO:15), and maF2-1 (SEQ ID NO:16) were designed to test shorter sequences for binding activity of anti-migis-α mAbs. Polypeptides at 10 μg/ml were coated in micro-well plates for reacting and ELISA procedures were followed as described above. […] In contrast, 29C11 is capable of binding to both the N-terminal and the middle part of migis-αL sequences, and also reacting to short fragments of the N-terminal polypeptides. (FIGS. 3B-C).

[2] = biological target: T2, synthetic polypeptide maF1-3 (human); test: ELISA on coated synthetic polypeptides
T2 peptide: CSVADWQMPPPY
Procedure: as §1, §2

[3] = biological target: T3, synthetic polypeptide maF2 (human); test: ELISA on coated synthetic polypeptides
T3 peptide: VADWQMPPPYVV
Procedure: as §1, §2

[4] = biological target: T4, synthetic polypeptide maF2-1 (human); test: ELISA on coated synthetic polypeptides
T4 peptide: DWQMPPPYVVLD
Procedure: as §1, §2

[5] = biological target: T5, mα1.Fc recombinant protein (human, UniProt P01876 103-333); test: ELISA screening of hybridoma culture medium
T5 construct: leader/His tag/linker of the vector as for the other constructs
Procedure: Fifty microgram of the chimeric protein was used to immunize each Balb/c mouse subcutaneously for 4-5 times in a two-week interval. Three days before cell fusion, ten microgram of the chimeric protein was injected into each mouse intravenously. The splenocytes isolated from immunized mice were fused with mouse myeloma cells FO by using polyethylene glycol 1500 (Roche). After fusion procedures, cells were grown in HAT selection medium for 10-12 days and the cultured medium was transferred for ELISA screening (detailed in the next section). […] Hybridoma clones which produce antibodies reacting to mα1.FcL-LZ and not reacting to mα1.Fc were identified as candidates by using horseradish peroxidase (HRP)-conjugated goat anti-mouse IgG.Fc antibodies (Jackson ImmunoResearch) in ELISA. To further test the binding of hybridoma candidates towards mIgA-expressing B cells, 2×10⁵ DAKIKI cells were incubated with 100 μl of cultured medium on ice for 30 min. Cells were washed with staining buffers [PBS with 2% fetal bovine serum (FBS, Invitrogen) and 0.05% sodium azide] and incubated with FITC-labeled rabbit F(ab)′₂ anti-mouse IgG antibodies (AbD Serotech) 1:400 diluted in staining buffers on ice for 30 min. After washing, cells were resuspended in 200 μl of staining buffer and subjected to flow cytometric analyses. […]

[6] = biological target: T6, mα1.FcS expressed on Ramos cells (human, UniProt P01876 103-398); test: flow cytometry on Ramos/mα1.FcS cells, 1 µg/ml
T6 construct: also called Ramos/mα1.FcS
Procedure: (§3) For flow cytometric assays in the examples, 3C10 was used as a positive control of detecting mIgA expression and a mouse anti-human mIgE mAb 4B12 (Igγ1, κ) was served as a negative control. To perform the cell staining, 10⁶ cells were washed and incubated with mAbs in 100 μl of staining buffers on ice for 30 min. Cells were subsequently washed with staining buffers and incubated with FITC-labeled rabbit F(ab)′₂ anti-mouse IgG antibodies […] 1:400 diluted in 100 μl staining buffers on ice for 30 min. After washing, cells were resuspended in 400 μl of staining buffers and subjected to flow cytometric analyses in a FACSCanto II (BD Biosciences). […] At the low concentrations (1 μg/ml) staining signals of 29C11 towards these three mIgA-expressing B cells are undetectable.

[7] = biological target: T7, synthetic polypeptide maFa, N-terminal part of migis-αL (human); test: ELISA on coated synthetic polypeptides, 10 µg/ml
T7 construct: also called the N-terminal polypeptide
T7 peptide: GSCSVADWQMPPPYVVLD
Procedure: as §1
Synthetic migis-αL polypeptides were further used to study binding epitopes of anti-migis-α mAbs by ELISA. […]

[8] = biological target: T8, mα1.FcL-456S-LZ recombinant protein (human); test: ELISA, serial dilution of mAb on coated mα1.FcL-456S-LZ
T8 construct: also called mα1.FcL-LZ
T8 chain: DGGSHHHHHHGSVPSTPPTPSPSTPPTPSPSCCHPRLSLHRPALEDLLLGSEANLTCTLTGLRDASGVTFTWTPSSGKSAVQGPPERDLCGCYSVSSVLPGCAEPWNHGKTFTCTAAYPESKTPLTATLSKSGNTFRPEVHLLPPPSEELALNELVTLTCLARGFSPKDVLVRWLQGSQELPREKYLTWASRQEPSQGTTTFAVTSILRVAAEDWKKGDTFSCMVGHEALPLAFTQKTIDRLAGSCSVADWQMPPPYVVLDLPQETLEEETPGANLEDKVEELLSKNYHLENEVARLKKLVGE
Procedure: as §1
The binding curves were analyzed by the software Prism® (GraphPad) and the equation used for calculation was shown below.

[9] = biological target: T9, membrane-bound IgA (mIgA) on DAKIKI cells (human, UniProt P01876 1-398); test: flow cytometry on DAKIKI cells, 10 µg/ml against 1 µg/ml
T9 construct: whole, on cells; also called mIgA-expressing B cells
Procedure: as §3

[10] = biological target: mα1.FcL-456C expressed on Ramos cells (human, UniProt P01876 103-398); test: flow cytometry on Ramos/mα1.FcL-456S (so in the source) cells, 1 µg/ml
Procedure: as §3

T9 sequence (P01876 whole entry): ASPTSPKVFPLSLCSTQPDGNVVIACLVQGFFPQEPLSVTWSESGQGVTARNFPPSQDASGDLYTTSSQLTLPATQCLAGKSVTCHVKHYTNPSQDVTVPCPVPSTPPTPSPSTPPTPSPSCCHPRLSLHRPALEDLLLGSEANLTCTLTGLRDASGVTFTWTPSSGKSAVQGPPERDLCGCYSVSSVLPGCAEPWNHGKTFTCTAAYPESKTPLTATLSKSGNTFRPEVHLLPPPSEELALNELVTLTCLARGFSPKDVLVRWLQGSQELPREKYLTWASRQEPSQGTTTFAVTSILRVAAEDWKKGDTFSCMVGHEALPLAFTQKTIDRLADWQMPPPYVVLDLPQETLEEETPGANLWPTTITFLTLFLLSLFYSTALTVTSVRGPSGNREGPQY

- binding result [5]: no binding
- fold of MFI over background against that of 29C11, (MFI8G7-MFIbackground)/(MFI29C11-MFIbackground) [6]: 10.4 fold
- binding result [7]: binds
- fold lower concentration at half the maximum binding than 29C11 [8]: ~6 fold
- fold of the increment of MFI (high minus low concentration, over background) against that of 29C11 [9]: 12.5 fold
- fold of MFI over background against that of 29C11, (MFI8G7-MFIbackground)/(MFI29C11-MFIbackground) [10]: 13.5 fold
B1: anti-migis-α mAb 8G7 (antibody, V domains shown)
VH: EVQLQESGPSLVKPSQTLSLTCSVTGDSITNGYWNWIRKFPGNKLEYMGYISYSGSTYYNPSLKSRIFITRDTSKNQYYLQLNSVTTEDTAIYYCARWLGGRAYWGQGTTLIVSS
VL: DIVMTQSQKFMSTSVGDRVSVTCKASQNVGTNVVWYQQKPGQSPKTLIYSASRRFSGVPDRFTGSGSGTDFTLTISNVQSEDLAEYFCQQYNSYPLTFGAGTKLELK
notes: also called 8G7 mAb
- binding result [1]: no binding (tested: 10 µg/ml peptide coated)
- binding result [2]: no binding (tested: 10 µg/ml peptide coated)
- binding result [3]: no binding (tested: 10 µg/ml peptide coated)
- binding result [4]: no binding (tested: 10 µg/ml peptide coated)
